Assays:
[1] = target: 5-enolpyruvylshikimate-3-phosphate synthase (EPSPS) from Agrobacterium sp. strain CP4 (CP4-EPSPS) (Agrobacterium sp. strain CP4) (UniProt Q9R4E4); experiment: native gel or EMSA; native-PAGE of the purified CP4-EPSPS protein (10 μg)
[2] = target: 5-enolpyruvylshikimate-3-phosphate synthase (EPSPS) from Agrobacterium sp. strain CP4 (CP4-EPSPS) (Agrobacterium sp. strain CP4) (UniProt Q9R4E4); experiment: SEC; Enrich SEC 650 column on FPLC, PBS pH 7.2, 25 °C, 0.5 mL/min, calibrated with Gel Filtration Standard; after Ni-NTA affinity chromatography

“5-enolpyruvylshikimate-3-phosphate synthase (EPSPS) from Agrobacterium sp. strain CP4 (CP4-EPSPS) (from UniProt Q9R4E4 1-455) (enzyme)” gave a stoichiometry N [1] of 2 and a stoichiometry N [2] of 2.

Source: article PMC10254243
